For the series, the target named is T1, RSV attachment glycoprotein G (RSV-G Protein, His Tag) (respiratory syncytial virus) (UniProt O36633).
T1 sequence: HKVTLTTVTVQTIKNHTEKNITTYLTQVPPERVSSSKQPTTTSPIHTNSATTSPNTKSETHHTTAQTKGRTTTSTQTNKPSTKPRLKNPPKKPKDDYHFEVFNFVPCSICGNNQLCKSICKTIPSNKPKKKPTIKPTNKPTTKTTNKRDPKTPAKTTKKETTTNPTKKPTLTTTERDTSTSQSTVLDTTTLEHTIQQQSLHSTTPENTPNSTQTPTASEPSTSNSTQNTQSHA
Kind of series: fluorescence polarization. As to conditions: FP: PBS pH 7.4, 0.5 nM aptamer; filter binding: PBS, BSA, 0.1% Tween 20, 0.1 ug/ml poly(dIdC), 50 nM aptamer, 20 min RT; ALPHA: HBSS, 1 mg/ml BSA, 0.05 ug/ml …. A general note: In fluorescence polarisation assays a small probe gives low polarisation when free and higher when bound to something large.

As usually defined, the Kd is the concentration at which binding is half-saturated. Low values mean higher affinity, high ones lower affinity.

Turning to “TAGGGAAGAGAAGGACATATGATAGTGCGGTGAGCCGTCGGACATACAAATACTTGACTAGTACATGACCACTTGA [H8 (Alexa Fluor 488)]”, the Kd stood at 0.03 µM.
